Measured values from publication PMC5153404.

Assays:
[1] = biological target: Recombinant mature human gC1qR (residues 74-282) (UniProt Q07021); test: ELISA; details: 2.5 μg/well gh protein, 90 min at 37°C and 90 min at 4°C, parent: est. 100, read off a plot
[2] = biological target: Recombinant mature human gC1qR (residues 74-282) (UniProt Q07021); test: ELISA; gC1qR coated at 0.25, 0.5 and 1 μg/well; 2.5 μg/well of gh module or substitution mutant; 90 min at 37°C and 90 min at 4°C; detected with anti-MBP monoclonal antibody

Recombinant globular head module of the human C1q B chain (ghB), MBP fusion (from UniProt P02746) T175L, sequence (P02746 117-253, stated change not applied): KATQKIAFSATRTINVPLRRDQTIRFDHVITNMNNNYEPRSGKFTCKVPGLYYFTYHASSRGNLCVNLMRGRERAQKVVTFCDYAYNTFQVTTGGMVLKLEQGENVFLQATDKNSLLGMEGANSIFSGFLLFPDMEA
Recombinant globular head module of the human C1q B chain (ghB), MBP fusion (from UniProt P02746) R129A, sequence (P02746 117-253, stated change not applied): as above
Recombinant globular head module of the human C1q C chain (ghC), MBP fusion (from UniProt P02747) R156E, sequence (P02747 115-245, stated change not applied): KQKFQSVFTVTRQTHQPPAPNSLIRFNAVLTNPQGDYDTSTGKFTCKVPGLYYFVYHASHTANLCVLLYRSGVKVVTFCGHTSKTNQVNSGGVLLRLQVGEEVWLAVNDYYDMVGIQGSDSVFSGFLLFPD
Recombinant globular head module of the human C1q C chain (ghC), MBP fusion (from UniProt P02747) L170E, sequence (P02747 115-245, stated change not applied): as above
Recombinant mature human gC1qR (residues 74-282), sequence (Q07021 74-282): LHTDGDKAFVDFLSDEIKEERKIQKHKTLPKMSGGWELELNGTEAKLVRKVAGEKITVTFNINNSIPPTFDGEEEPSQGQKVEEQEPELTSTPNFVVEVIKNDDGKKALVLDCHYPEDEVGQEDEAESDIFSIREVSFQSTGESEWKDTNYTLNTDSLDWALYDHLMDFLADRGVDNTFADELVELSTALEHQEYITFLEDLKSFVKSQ
Recombinant globular head module of the human C1q C chain (ghC), MBP fusion (from UniProt P02747) H101A, sequence (P02747 115-245, stated change not applied): as the sequence (P02747 115-245, stated change not applied) above

## Recombinant globular head module of the human C1q B chain (ghB), MBP fusion (from UniProt P02746) R129A
[1]; 0.25 μg/well gC1qR coated
  percent of parent: 27 % binding
[1]; 0.5 μg/well gC1qR coated
  percent of parent: 33 % binding
[1]; 1 μg/well gC1qR coated
  percent of parent: 30 % binding

## Recombinant globular head module of the human C1q B chain (ghB), MBP fusion (from UniProt P02746) T175L
[1]; 0.25 μg/well gC1qR coated
  percent of parent: 62 % binding
[1]; 0.5 μg/well gC1qR coated
  percent of parent: 56 % binding
[1]; 1 μg/well gC1qR coated
  percent of parent: 68 % binding

## Recombinant globular head module of the human C1q C chain (ghC), MBP fusion (from UniProt P02747) H101A
[1]; 0.25 μg/well gC1qR coated
  percent of parent: 51 % binding
[1]; 1 μg/well gC1qR coated
  percent of parent: 79 % binding

## Recombinant globular head module of the human C1q C chain (ghC), MBP fusion (from UniProt P02747) L170E
[1]; 0.25 μg/well gC1qR coated
  percent of parent: 62 % binding
[1]; 0.5 μg/well gC1qR coated
  percent of parent: 91 % binding
[1]; 1 μg/well gC1qR coated
  percent of parent: 100 % binding

## Recombinant globular head module of the human C1q C chain (ghC), MBP fusion (from UniProt P02747) R156E
[1]; 0.25 μg/well gC1qR coated
  percent of parent: 81 % binding
[1]; 0.5 μg/well gC1qR coated
  percent of parent: 110 % binding
[1]; 1 μg/well gC1qR coated
  percent of parent: 110 % binding

## ghA-R162A, MBP fusion (from UniProt P02745 23-245) (domain or fragment)
[2]
  percent reduction in binding against wild-type ghA: < 70%

## ghB-H117D, MBP fusion (from UniProt P02746 28-253) (domain or fragment)
[2]
  percent reduction in binding against wild-type ghB: 60%
